According to US6613878B1, “PCNA binding substance” (Cyclacel Limited, priority 1995, dated 2003):
Ends that are not written are not given here.

What was measured:
PCNA [1] = target: T1, PCNA (Homo sapiens, UniProt P12004); assay: Peptide precipitation of PCNA from HeLa cell lysate, PC10 Western blot; format: binding; parameters: HeLa cell lysate was added to the washed beads to a final protein concentration of 1 mg/ml; endogenous in cells; host or cells: HeLa; settings: 2.7 μg peptide on beads; HeLa lysate 1 mg/ml; PC10 immunoblot
Experimental: Twenty amino acid peptides with 15 amino acid overlaps were synthesized (Chiron Mimotopes, Australia) across the 89 amino acids from the C-terminal region of Fen1 identified in the two hybrid screen as the PCNA binding site on Fen1. These peptides were linked via residues SGSG (SEQ ID NO:3) at the amino acid terminus to biotin. 2.7 μg of each peptide was incubated with 10 μl streptavidin agarose beads (Sigma) in phosphate buffered saline (PBS) for 1 hour at room temperature (r.t.) then beads were washed extensively in PBS and recovered each time by centrifugation at 11,600 g. HeLa cell lysate was added to the washed beads to a final protein concentration of 1 mg/ml and incubated with the beads on ice for 1 hour. Beads were extensively washed in PBS with 220 mM NaCl, then bound proteins removed by boiling for 8 minutes in SDS loading buffer with 0.2 M DTT. Proteins were separated on 10% SDS-PAGE then electrophoretically transferred to nitrocellulose. Blots were blocked then incubated for 1 hour r.t. with PC 10 hybridoma supernatant (Waseem & Lane, 1990) diluted 1:5 in DMEM with 10% FCS. After washing, secondary HRP-conjugated anti-mouse IgG serum at 1:1000 in 2% non-fat milk-PBS-0.2% Tween was added for 1 hour at r.t. Bound antibody was visualised using the ECL system according to the manufacturer's instructions (Amersham plc.)
To map precisely the residues of Fen1 to which PCNA binds, a series of biotinylated 20 amino acids peptides (with 15 amino acid overlaps) were synthesized representing the region of Fen1 found to interact with PCNA in the two hybrid screen (FIG. 1). Fen1 peptides (bound to streptavidin agarose beads) were incubated with human HeLa cell extracts, then beads were precipitated and bound protein analysed on immunoblots probed with monoclonal anti-PCNA antibody PC10 (Waseen & Lane, 1990).
The region of human Fen1 recognised by PCNA in the precipitation assay contains a motif highly conserved in the Fen1 family. We examined whether human PCNA could bind to his motif in the yeast homologues of Fen1, S. pombe rad2 and […]/YKL510. […]

PCNA [2] = target: T1, PCNA; assay: Competitive ELISA: PCNA binding to immobilised FenPBP (peptide 84); parameters: made in house; used as unpurified lysate; settings: non-biotinylated 9-mer, FIG. 4
Experimental: Biotinylated FenPBP (peptide 84 (SEQ ID NO:4)—see FIG. 2) was immobilised on ELISA dishes pre-coated with streptavidin. Bacterial cell lysate overexpressing recombinant human PCNA was mixed with increasing amounts of a non-biotinylated 9 amino acid peptide QTSMTDFYH (SEQ ID NO:2) derived from p21PBP (Warbrick et al., 1995), then binding of PCNA to the immobilised FenPBP was measured using polyclonal antibody 3009 against PCNA, followed by HRP-anti-rabbit antibody,and calorimetric detection at 450 nm.
ELISA plates were coated overnight at 37° C. with 100 ng of streptavidin per well. Plates were blocked with 5% non-fat milk powder in PBS, washed extensively with PBS containing 0.2% Tween 20 (PBS-T) then 100 μl FenPBP—peptide 84 (SEQ ID NO:4) (see FIG. 2)—at 10 μg/ml was added to each well. Following 1 hour incubation at r.t. in a humid chamber, wells were washed extensively. Approximately 3.5 μg total protein containing overexpressed recombinant human PCNA was mixed with varying concentrations of a 9 amino acid peptide derived from p21PBP (Warbrick et al, 1995), of the sequence QTSMTDFYH (SEQ ID NO:2) (purified by HPLC and verified by mass spectrometry) and applied to the wells for 1 hour at r.t. After extensive washing, anti-PCNA polyclonal antibody 3009 (Cox et al., manuscript in preparation) was added at 1:1000, followed by HRP-conjugated anti-rabbit IgG serum at 1:1000, and bound antibody was visualized by the TMB colormetric procedure (Harlow & Lane, 1998). Plated were read at 450 nm using a Dynatech 5000 plate reader.
Since the region of PCNA bound by Fen1 is the same as that recognised by p21^Cip1, and the motif of Fen1 required for PCNA interaction appears homologous to the critical residues of p21PBP (Warbrick et al., 1995), it is highly possible that Fen1 and p21^Cip1 might compete for binding to PCNA. We therefore tested this hypothesis using PCNA-interacting peptide 84 (SEQ ID NO:4) of Fen1 (dubbed Fen1PBP for Fen1-PCNA binding peptide) immobilised in ELISA wells. […]

T1 sequence (P12004 whole entry): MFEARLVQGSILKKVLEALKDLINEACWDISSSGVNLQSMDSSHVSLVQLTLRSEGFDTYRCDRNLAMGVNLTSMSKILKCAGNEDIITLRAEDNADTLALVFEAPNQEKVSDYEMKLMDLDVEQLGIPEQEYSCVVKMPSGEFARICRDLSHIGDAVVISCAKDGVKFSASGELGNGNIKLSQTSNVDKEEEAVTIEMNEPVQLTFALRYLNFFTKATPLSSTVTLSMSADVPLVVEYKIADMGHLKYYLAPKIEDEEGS

Row | Substance | PCNA precipitated from HeLa cell extract by biotinylated peptide on streptavidin agarose beads (PCNA [1]) | Concentration of added peptide giving total displacement of PCNA from immobilised Fen1PBP (PCNA [2]; immobilised Fen1PBP) [mM] | Concentration of peptide that completely prevented PCNA binding to Fen1PBP (approximate molar) (PCNA [2]; immobilised biotinylated FenPBP) | Concentration of peptide that completely prevented PCNA binding to Fen1PBP (PCNA [2]; immobilised biotinylated FenPBP, antibody 3009, read at 450 nm) [µg/mL]
1 | 86: Biotinylated 20 amino acid peptide of the human Fen1 C-terminal region containing TQGRLDDFFK (SGSGTQGRLDDFFKVTGSLSSAKR; also: biotinylated) [compound 86] | equal efficiency | – | – | –
2 | QTSMTDFYH [Non-biotinylated 9 amino acid peptide derived from p21PBP (Warbrick et al., 1995)] | – | 1 | approximately 1 μM | 1
3 | 85: Biotinylated 20 amino acid peptide of the human Fen1 C-terminal region containing TQGRLDDFFK (SGSGSRQGSTQGRLDDFFKVTGSL; also: biotinylated) [compound 85] | equal efficiency | – | – | –
4 | peptide 84: Biotinylated (SGSG-linked) 20 amino acid peptide of the human Fen1 C-terminal region containing TQGRLDDFFK; Fen1-PCNA binding peptide (SGSGKRLSKSRQGSTQGRLDDFFK; also: biotinylated, site not given here) | equal efficiency | – | – | –
